The molecules below were run on Soybean cv Jake (assay: Herbicide tolerance test of transgenic soybean events, roots of cuttings treated via nutrient solution with the herbicide). Details: transgenic plants expressing the TriA variant, herbicide treatment; 0% no injury, 100% complete death; herbicide and species not given.
Format: in vivo
Procedure: Binary vectors are generated as described in EXAMPLE 9. Soybean cv Jake are transformed as previously described by Siminszky et al., Phytochem Rev. 5:445-458 (2006). After regeneration, transformants are transplanted to soil in small pots, placed in growth chambers (16 hr day/8 hr night; 25° C. day/23° C. night; 65% relative humidity; 130-150 microE m-2 s-1) and subsequently tested for the presence of the T-DNA via Taqman analysis. After a few weeks, healthy, transgenic positive, single copy events are transplanted to larger pots and allowed to grow in the growth chamber. An optimal shoot for cutting is about 3-4 inches tall, with at least two nodes present. Each cutting is taken from the original transformant (mother plant) and dipped into rooting hormone powder (indole-3-butyric acid, IBA). The cutting is then placed in oasis wedges inside a bio-dome. The mother plant is taken to maturity in the greenhouse and harvested for seed. Wild type cuttings are also taken simultaneously to serve as negative controls. The cuttings are kept in the bio-dome for 5-7 days. 7-10 days after transfer to oasis wedges, the roots are treated via nutrient solution with the herbicide. Typical phytotox symptoms, like club shaped root, are evaluated 3-4 days after treatment. Less or no injury of transgenic plants compared to wildtype plants are interpreted as herbicide tolerance.

Molecule	Root injury [%]
L88AL92A: mutated TriA (SEQ ID NO: 2) in which position 88 is Ala and position 92 is Ala (protein, Pseudomonas) MQTLSIQHGTLVTMDQYRRVLGDSWVHVQDGRIVALGVHAESVPPPADRVIDARGKVVLPGFINAHTHVNQILLRGGPSHGRQLYDWAFNVAYPGQKAMRPEDVAVAVRLYCAEAVRSGITTINDNADSAIYPGNIEAAMAVYGEVGVRVVYARMFFDRMDGRIQGYVDALKARSPQVELCSIMEETAVAKDRITALSDQYHGTAGGRISVWPAPAITPAVTVEGMRWAQAFARDRAVMWTLHMAESDHDERLHWMSPAEYMECYGLLDERLQVAHCVYFDRKDVRLLHRHNVKVASQVVSNAYLGSGVAPVPEMVERGMAVGIGTDDGNCNDSVNMIGDMKFMAHIHRAVHRDADVLTPEKILEMATIDGARSLGMDHEIGSIETGKRADLILLDLRHPQTTPHHHLAATIVFQAYGNEVDTVLIDGNVVMENRRLSFLPPERELAFLEEAQSRATAILQRANMVANPAWRSL	0
L92V: mutated TriA (SEQ ID NO: 2) in which position 92 is Val (protein, Pseudomonas) MQTLSIQHGTLVTMDQYRRVLGDSWVHVQDGRIVALGVHAESVPPPADRVIDARGKVVLPGFINAHTHVNQILLRGGPSHGRQLYDWLFNVVYPGQKAMRPEDVAVAVRLYCAEAVRSGITTINDNADSAIYPGNIEAAMAVYGEVGVRVVYARMFFDRMDGRIQGYVDALKARSPQVELCSIMEETAVAKDRITALSDQYHGTAGGRISVWPAPAITPAVTVEGMRWAQAFARDRAVMWTLHMAESDHDERLHWMSPAEYMECYGLLDERLQVAHCVYFDRKDVRLLHRHNVKVASQVVSNAYLGSGVAPVPEMVERGMAVGIGTDDGNCNDSVNMIGDMKFMAHIHRAVHRDADVLTPEKILEMATIDGARSLGMDHEIGSIETGKRADLILLDLRHPQTTPHHHLAATIVFQAYGNEVDTVLIDGNVVMENRRLSFLPPERELAFLEEAQSRATAILQRANMVANPAWRSL	50
N70A: mutated TriA (SEQ ID NO: 2) in which position 70 is Ala (protein, Pseudomonas) MQTLSIQHGTLVTMDQYRRVLGDSWVHVQDGRIVALGVHAESVPPPADRVIDARGKVVLPGFINAHTHVAQILLRGGPSHGRQLYDWLFNVLYPGQKAMRPEDVAVAVRLYCAEAVRSGITTINDNADSAIYPGNIEAAMAVYGEVGVRVVYARMFFDRMDGRIQGYVDALKARSPQVELCSIMEETAVAKDRITALSDQYHGTAGGRISVWPAPAITPAVTVEGMRWAQAFARDRAVMWTLHMAESDHDERLHWMSPAEYMECYGLLDERLQVAHCVYFDRKDVRLLHRHNVKVASQVVSNAYLGSGVAPVPEMVERGMAVGIGTDDGNCNDSVNMIGDMKFMAHIHRAVHRDADVLTPEKILEMATIDGARSLGMDHEIGSIETGKRADLILLDLRHPQTTPHHHLAATIVFQAYGNEVDTVLIDGNVVMENRRLSFLPPERELAFLEEAQSRATAILQRANMVANPAWRSL	0
D128I: mutated TriA (SEQ ID NO: 2) in which position 128 is Ile (protein, Pseudomonas) MQTLSIQHGTLVTMDQYRRVLGDSWVHVQDGRIVALGVHAESVPPPADRVIDARGKVVLPGFINAHTHVNQILLRGGPSHGRQLYDWLFNVLYPGQKAMRPEDVAVAVRLYCAEAVRSGITTINDNAISAIYPGNIEAAMAVYGEVGVRVVYARMFFDRMDGRIQGYVDALKARSPQVELCSIMEETAVAKDRITALSDQYHGTAGGRISVWPAPAITPAVTVEGMRWAQAFARDRAVMWTLHMAESDHDERLHWMSPAEYMECYGLLDERLQVAHCVYFDRKDVRLLHRHNVKVASQVVSNAYLGSGVAPVPEMVERGMAVGIGTDDGNCNDSVNMIGDMKFMAHIHRAVHRDADVLTPEKILEMATIDGARSLGMDHEIGSIETGKRADLILLDLRHPQTTPHHHLAATIVFQAYGNEVDTVLIDGNVVMENRRLSFLPPERELAFLEEAQSRATAILQRANMVANPAWRSL	0
N70N: TriA (melamine deaminase, SEQ ID NO: 2) with position 70 unchanged, apparently the wildtype reference (protein, Pseudomonas) MQTLSIQHGTLVTMDQYRRVLGDSWVHVQDGRIVALGVHAESVPPPADRVIDARGKVVLPGFINAHTHVNQILLRGGPSHGRQLYDWLFNVLYPGQKAMRPEDVAVAVRLYCAEAVRSGITTINDNADSAIYPGNIEAAMAVYGEVGVRVVYARMFFDRMDGRIQGYVDALKARSPQVELCSIMEETAVAKDRITALSDQYHGTAGGRISVWPAPAITPAVTVEGMRWAQAFARDRAVMWTLHMAESDHDERLHWMSPAEYMECYGLLDERLQVAHCVYFDRKDVRLLHRHNVKVASQVVSNAYLGSGVAPVPEMVERGMAVGIGTDDGNCNDSVNMIGDMKFMAHIHRAVHRDADVLTPEKILEMATIDGARSLGMDHEIGSIETGKRADLILLDLRHPQTTPHHHLAATIVFQAYGNEVDTVLIDGNVVMENRRLSFLPPERELAFLEEAQSRATAILQRANMVANPAWRSL	80
M155V: mutated TriA (SEQ ID NO: 2) in which position 155 is Val (protein, Pseudomonas) MQTLSIQHGTLVTMDQYRRVLGDSWVHVQDGRIVALGVHAESVPPPADRVIDARGKVVLPGFINAHTHVNQILLRGGPSHGRQLYDWLFNVLYPGQKAMRPEDVAVAVRLYCAEAVRSGITTINDNADSAIYPGNIEAAMAVYGEVGVRVVYARVFFDRMDGRIQGYVDALKARSPQVELCSIMEETAVAKDRITALSDQYHGTAGGRISVWPAPAITPAVTVEGMRWAQAFARDRAVMWTLHMAESDHDERLHWMSPAEYMECYGLLDERLQVAHCVYFDRKDVRLLHRHNVKVASQVVSNAYLGSGVAPVPEMVERGMAVGIGTDDGNCNDSVNMIGDMKFMAHIHRAVHRDADVLTPEKILEMATIDGARSLGMDHEIGSIETGKRADLILLDLRHPQTTPHHHLAATIVFQAYGNEVDTVLIDGNVVMENRRLSFLPPERELAFLEEAQSRATAILQRANMVANPAWRSL	10

From patent publication US10538782B2, “Plants having increased tolerance to herbicides” (BASF SE, priority 2015, dated 2020)
